According to the DeepSol protein solubility set:

Experiment: soluble on expression in E. coli; label from the status in PepcDB or PDB records

Row | Sequence | soluble on expression in E. coli
1 | SNRLPDDYDPYAVEEPSDEEPALSSSEDEVDVLLHGTPDQKRKLIRECLTGESESSSEDEFEKEMEAELNSTMKTMEDKLSSLGTGSSSGNGKVATAPTRYYDDIYFDSDSEDEDRAVQVTKKKKKKQHKIPTNDELLYDPEKDNRDQAWVDAQRRGYHGLGPQRSREQQPVPNSDAVLNCPACMTTLCLDCQRHESYKTQYRAMFVMNCSINKEEVLRYKASENRKKRRVHKKMRSNQEDAAEKAETDVEEIYHPVMCTECSTEVAVYDKDEVFHFFNVLASHS | soluble
2 | SPGSAAKGSELSERIESFVETLKRGGGPRSSEEMARETLGLLRQIITDHRWSNAGELMELIRREGRRMTAAQPSETTVGNMVRRVLKIIREEYGRLHGRTDESDQQESLHKLLTSGGLNEDFSFHYAQLQSNIIEAINELLVELEGTMENIAAQALEHIHSNEVIMTIGFSRTVEAFLKEAARKRKFHVIVAECAPFCQGHEMAVNLSKAGIETTVMTDAAIFAVMSRVNKVIIGTKTILANGALRAVTGTHTLALAAKHHSTPLIVCAPMFKLSPQFPNEEDSFHKFVAPEEVLPFTEGDILEKVSVHCPVFDYVPPELITLFISNIGGNAPSYIYRLMSELYHPDDHVL | soluble
3 | SPMPAGRPRFLRSMALSSQTREWLEKGMPTEAEAGVPIRLQERAANTAPQARAEERHTQPADAAAPHARAERGRTLQAPASTSPLYTGAVPRANRIVQQLVEAGADLANIRTMFRNMLRGEEMILSRAEQNVFLQHFPDMLPCGIDRNSELAIALREALRRADSQQAARAPARTPPRSS | soluble
4 | SPRIAEKMLRKRHGQAAFAAYVEKREQTRAAARAYDQRALQGDLEIIYNFGQDLIDEHAIEVSAEQVTVPGFSQPLVYKKDARFSDMLD | not soluble
5 | SQPNSSIIKYPNKVRNLPGIAASLRTVGYSTHHLYGGDADFTNVRSYLYGTGYDEVTDVSSFPFKTRLSKWGTPDHISFPRLLDDCRRLEKEKKPYFYSFLTLSSHEPFDVPSQHHPDPYLNSVFYTDSCFGDYIRGMQQSPQWKNTLIIAVSDHGYPYPADQAMPDQPGRYGIVMLWAGGAILRPIRFEEVVSQSDLPATLLAQLGLTHDEFVFSKDVFRRNSPHFAYFSFPGLVGLATSEGTTIYDFAGDKIVYGHEAPLADQRAIAAKVMLQSVMKDMLSR | not soluble
6 | SREPVDILREQKINAEWALKQQSDKLAAQFDNMDDAYLRERKQDMLQVVRRIHNNLIGQGNELEVADNLFDETVLIANDLSPADTVLFKEQR | not soluble
7 | SREWRTKIQAQIDRFPIGDREGEWQTMIQKMVSSYLVHHGYCATAEAFARSTDQTVLEELASIKNRQRIQKLVLAGRMGEAIETTQQLYPSLLERNPNLLFTLKVRQFIEMVNGTDSEVRCLGGRSPKSQDSYPVSPRPFSSPSMSPSHGMNIHNLASGKGSTAHFSGFESCSNGVISNKAHQSYCHSNKHQSSNLNVPELNSINMSRSQQVNNFTSNDVDMETDHYSNGVGETSSNGFLNGSSKHDHEMEDCDTEMEVDSSQLRRQLCGGSQAAIERMIHFGRELQAMSEQLRRDCGKNTANKKMLKDAFSLLAYSDPWNSPVGNQLDPIQREPVCSALNSAILETHNLPKQPPLALAMGQATQCLGLMARSGIGSCAFATVEDYLH | soluble
8 | SRLKLFSILSMMLLRPKDTVDSQGQFRGYLDMVINDILAPNLQWHAGRTAAAIRTAAISCLWALISSDILSAKQVQEAQETLMPQVLATLEDDSQTTRLMSCRIINMFLKNSGDTMEPEKFLKVYPELLKRLDDVSNDVRMAAASALLTWLKCIESLDGKSAYQSSVQFLYRELLVHLDDPESAIQDTVLEVLKEGSVLFPDVLVRETEAVVHKHRSATYCEQLLQHMQTMAAAR | soluble
9 | SRRMKANARERNRMHGLNAALDNLRKVVPCYSKTQKLSKIETLRLAKNYIWALSEILRSG | soluble
10 | SSAKAQVNPAICRYPLGMSGGQIPDEDITASSQWSESTAAKYGRLDSEEGDGAWCPEIPVEPDDLKEFLQIDLHTLHFITLVGTQGRHAGGHGIEFAPMYKINYSRDGTRWISWRNRHGKQVLDGNSNPYDIFLKDLEPPIVARFVRFIPVTDHSMNVCMRVELYGCVWLDGLVSYNAPAGQQFVLPGGSIIYLNDSVYDGAVGYSMTEGLGQLTDGVSGLDDFTQTHEYHVWPGYDYVGWRNESATNGYIEIMFEFDRIRNFTTMKVHCNNMFAKGVKIFKEVQCYFRSEASEWEPNAISFPLVLDDVNPSARFVTVPLHHRMASAIKCQYHFADTWMMFSEITFQSDAAM | not soluble
11 | SSENLDKSNVNEAGKSKSNDSEEGLEDAVEGADEALQKAIKSDSSSPQRVQRPHSSPPRFVTVEELLETARGVTNMALAHEIVVNGDFQIKPVELPENSLKKRVKEIVHKAFWDCLSVQLSEDPPAYDHAIKLVGEIKETLLSFLLPGHTRLRNQITEVLDLDLIKQEAENGALDISRLAEFIIGMMGTLCAPARDEEVKKLKDIKEIVPLFREIFSVLDLMKVDMANFAISSIRPHLMQQSVEYERKKFQEILERQPNSLDFVTQWLEEASEDLMTQKYKHALPVGGMAAGSGDMPRLSPVAVQNYAYLKLLKWDHLQRPFPETVLMDQSRFHELQLQLEQLTILGAVLLVTFSMAAPGISSQADFAEKLKMIVKILLTDMHLPSFHLKDVLTTIGEKVCLEVSSCLSLCGSSPFTTDKETVLKGQIQAVASPDDPIRRIMESRILTFLETYLASGHQKPLPTVPGGLSPVQRELEEVAIKFARLVNYNKMVFCPYYDAILSKILVRS | soluble
12 | SSKVEQLRAQLNERILVLDGGMGTMIQSYRLNEADFRGERFADWPCDLKGNNDLLVLSKPEVIAAIHNAYFEAGADIIETNTFNSTTIAMADYQMESLSAEINFAAAKLARACADEWTARTPEKPRYVAGVLGPTNRTASISPDVNDPAFRNITFDQLVAAYRESTKALVEGGADLILIETVFDTLNAKAAVFAVKTEFEALGVELPIMISGTITDASGRTLSGQTTEAFYNSLRHAEALTFGLNCALGPDELRQYVQELSRIAECYVTAHPNAGLPNAFGEYDLDADTMAKQIREWAEAGFLNIVGGCCGTTPQHIAAMSRAVEGLAPRKLPEIPVACRLSGLEPLNIGEDSLFVNVGERTNVTGSAKF | not soluble
13 | SSLAISVANDDAGIFQPSLNALYGHPAADRGDYTAGLFLGYSHDLTDASQLSFHIAQDIYSPSGANKRKPEAVKGDRAFSAFLHTGLEWNSLATNWLRYRLGTDIGVIGPDAGGQEVQNRAHRIIGAEKYPAWQDQIENRYGYTAKGMVSLTPAIDILGVNVGFYPEVSAVGGNLFQYLGYGATVALGNDKTFNSDNGFGLLSRRGLIHTQKEGLIYKVFAGVERREVDKNYTLQGKTLQTKMETVDINKTVDEYRVGATIGYSPVAFSLSLNKVTSEFRTGDDYSYINGDITFFF | soluble
14 | SSQVPDVMVVGEPTLMGGEFGDEDERLITRLENTQFDAANGIDDEGGSGGHMGSGGTPEIPMCAGCDQHILDRFILKALDRHWHSKCLKCSDCHVPLAERCFSRGESVYCKDDFFKRFGTKCAACQLGIPPTQVVRRAQDFVYHLHCFACVVCKRQLATGDEFYLMEDSRLVCKADYETAKQ | soluble
15 | SSRHVFLTGPPGVGKTTLIQKAIEVLQSSGLPVDGFYTQEVRQEGKRIGFDVVTLSGAQGPLSRVGSQPLPGKPECRVGQYVVNLDSFEQLALPVLRNAGSSCGPKHRVCIIDEIGKMELFSQPFIQAVRQMLSTPGIIVVGTIPVPKGKPLALVEEIRKRRDVKVFNVTRDNRNSLLPDIVAVVQSSRT | soluble
16 | SSSSSSVPAYLGDEDLTQETRALISSLPKEKGWLVSEIYEFQGLWHTQAILQGILICQKRFEAKDSDIILVTNPKSGTTWLKALVFALLNRHKFPVSSSGNHPLLVTNPHLLVPFLEGVYYESPDFDFSSLPSPRLMNTHISHLSLPESVKSSSCKIVYCCRNPKDMFVSLWHFGKKLAPEETADYPIEKAVEAFCEGKFIGGPFWDHILEYWYASRENPNKVLFVTYEELKKQTEVEMKRIAEFLECGFIEEEEVREIVKLCSFESLSNLEVNKEGKLPNGIETKTFFRKGEIGGWRDTLSESLAEEIDRTIEEKFKGSGLKFSS | soluble
17 | SSTHVAGLGLDKMKLGNPQSFLDQEEADDQQLLEPEAWKTYTERRNALREFLTSDLSPHLLKRHHARMQLLRKCSYYIEVLPKHLALGDQNPLVLPSALFQLIDPWKFQRMKKVGTAQTKIQLLLLGDLLEQLDHGRAELDALLRSPDPRPFLADWALVERRLADVSAVMDSFLTMMVPGRLHVKHRLVSDVSATKIPHIWLMLSTKMPVVFDRKASAAHQDWARLRWFVTIQPATSEQYELRFRLLDPRTQQECAQCGVIPVAACTFDVRNLLPNRSYKFTIKRAETSTLVYEPWRDSLTLHTKPEPLEGPALSHSV | soluble
18 | SSVDPMTYEAQFFGFTPQTCMLRIYIAFQDYLFEVMQAVEQVILKKLDGIPDCDISPVQIRKCTEKFLCFMKGHFDNLFSKMEQLFLQLILRIPSNILLPEDKCKETPYSEEDFQHLQKEIEQLQEKYKTELCTKQALLAELEEQKIVQAKLKQTLTFFDELHNVGRDHGTSDFRESLVSLVQNSRKLQNIRDNVEKESKRLKIS | soluble
19 | SSWAIHYIGKSVEQLTGYSKMDFITRKLTWSDLICPEDIPALNKVVQKATKNRTPYQVEYRIKKADGSTVFIQEQAHPVNDDKGNLAYVDGVFLDV | not soluble
20 | SSWWTHVEMGPPDPILGVTEAFKRDTNSKKMNLGVGAYRDDNGKPYVLPSVRKAEAQIAAKNLDKEYLPIGGLAEFCKASAELALGENNEVLKSGRFVTVQTISGTGALRVGASFLQRFFKFSRDVFLPKPSWGNHTPIFRDAGMQLQGYRYYDPKTCGFDFSGALEDISKIPEQSVLLLHACAHNPTGVDPRPEQWKEIASVVKKKNLFAFFDMAYQGFASGDGDKDAWAVRHFIEQGINVCLCQSYAKNMGLYGERVGAFTVVCKDAEEAKRVESQLKILIRPLYSNPPLNGARIAATILTSPDLRKQWLQEVKGMADRIISMRTQLVSNLKKEGSSHNWQHITDQIGMFCFTGLKPEQVERLTKEFSVYMTKDGRISVAGVTSGNVGYLAHAIHQVTK | soluble
21 | STGKKPKHHVLSHDIIPASKPIAEKLQIQPESPVVELKRILYNDDQPLTFEVTHYPLDLFPGIDTFIADGVSMHDILKQQYKVVPTHNTKLLNVVYAQQEESKYLDCDIGDALFEIDKTAFTSNDQPIYCSLFLMHTNRVT | not soluble
22 | STPSIVIASAARTAVGSFNGAFANTPAHELGATVISAVLERAGVAAGEVNEVILGQVLPAGEGQNPARQAAMKAGVPQEATAWGMNQLCGSGLRAVALGMQQIATGDASIIVAGGMESMSMAPHCAHLRGGVKMGDFKMIDTMIKDGLTDAFYGYHMGTTAENVAKQWQLSRDEQDAFAVASQNKAEAAQKDGRFKDEIVPFIVKGRKGDITVDADEYIRHGATLDSMAKLRPAFDKEGTVTAGNASGLNDGAAAALLMSEAEASRRGIQPLGRIVSWATVGVDPKVMGTGPIPASRKALERAGWKIGDLDLVEAAEAFAAQACAVNKDLGWDPSIVNVNGGAIAIGHPIGASGARILNTLLFEMKRRGARKGLATLCIGGGMGVAMCIESL | soluble
23 | STVELCGQWDTRTVAGGRYTVSNNVWGAETAQCIEVGLETGNFTITRAEHDNGNNVAAYPNIQFAIPQPRRVQELSDVRTSWTLTPITTGRWNAAYDIFFAANPNHVTYSGDAELMIWLNKNGDVMPIGSRVATVELAGATWEVWYADNGAMNVISYVRTTPTTSVTELDLKAFIDDAVARGYIRPEWYLLSVQTGFELFTGGAGLRSADFSVTVQ | soluble
